# Test results reported in article PMC5433087.
# Biological target: HER3 (Human, His-tagged; Sino Biological) (human) (UniProt P21860)
# Test: SPR
# Chain of UniProt P21860 (P21860 20-643): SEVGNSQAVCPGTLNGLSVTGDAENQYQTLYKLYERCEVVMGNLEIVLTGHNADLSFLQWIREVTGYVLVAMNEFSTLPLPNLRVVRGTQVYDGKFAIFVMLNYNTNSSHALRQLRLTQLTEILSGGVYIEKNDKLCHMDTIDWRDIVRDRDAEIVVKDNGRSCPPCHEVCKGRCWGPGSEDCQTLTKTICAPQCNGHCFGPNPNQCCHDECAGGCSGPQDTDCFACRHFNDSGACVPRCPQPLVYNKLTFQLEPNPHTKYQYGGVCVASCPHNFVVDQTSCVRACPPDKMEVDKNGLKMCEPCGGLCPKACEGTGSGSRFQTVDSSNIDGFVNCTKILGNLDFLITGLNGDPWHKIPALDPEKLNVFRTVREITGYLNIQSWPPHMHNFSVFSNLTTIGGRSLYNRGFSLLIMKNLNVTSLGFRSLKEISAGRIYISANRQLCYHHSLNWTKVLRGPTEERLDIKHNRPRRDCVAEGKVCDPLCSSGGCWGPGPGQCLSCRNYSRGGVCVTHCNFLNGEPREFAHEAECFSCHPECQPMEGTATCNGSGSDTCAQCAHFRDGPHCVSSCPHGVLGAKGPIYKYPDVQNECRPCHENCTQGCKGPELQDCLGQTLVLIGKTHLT
row,Kd [pM],Substance
1,327,bivalent HER3 affibody (two Z_(05413) domains joined by a spacer of three repeat units) (designed binder)
2,316,monovalent HER3 affibody (Z_(05413) affibody) (designed binder)
3,2340,trivalent HER3 affibody (three Z_(05413) domains joined by spacers of three repeat units) (designed binder)
